Target: SARS-CoV-2 RBD, truncated version (residues 333–529) (SARS-CoV-2, UniProt P0DTC2)
Test: crystal structure
Settings: both partners purified

B1: COVA1–16 Fab (Fab, V domains shown)
VH: QVQLVQSGAEVKKPGASVKVSCKASGYTFTSYYMHWVRQAPGQGLEWMGIINSSGGSTSYAQKFQGRVTMTRDTSTSTVYMELSSLRSEDTAVYYCARPPRNYYDRSGYYQRAEYFQHWGQGTLVTVSS
VL: DIQLTQSPSSLSASVGDRVTITCQASQDISNYLNWYQQRPGKAPKLLIYDASNLETGVPSRFSGSGSGTDFTFTISSLQPEDIATYYCQQYDNPPLTFGGGTKLEIK
notes: also called Fab COVA1–16
- binding result: binds

— publication doi:10.1101/2021.04.01.437942 (bioRxiv, 2021)
